Results: the RNAGym collection of RNA variant scans (doi:10.7554/elife.80360)

B1: HDV Ribozyme (parent)
chain: GGCCGGCAUGGUCCCAGCCUCCUCGCUGGCGCCGGCUGGGCAACAUUCCGAGGGGACCGUCCCCUCGGUAAUGGCGAAUGGGACCCA

Variants of: B1
Test: self-cleavage, relative activity (ratio to wild type); higher = more cleavage; co-transcriptional

Variant | self-cleavage
C7U G73A | 0.424
C7U G73U | 0.277
C7U G73C | 0.224
A8C U37G | 0.166
C7U C86G | 0.617
C7U C86A | 0.872
C7U C86U | 0.678
A8C C24A | 0.434
A8C C24U | 0.396
A8C C58G | 0.68
A8C C58A | 0.692
A8C G68A | 0.554
A8C G68U | 0.943
A8G C15G | 0.262
A8G C15A | 0.554
A8G C15U | 0.7
A8G A77G | 0.867
A8G A77U | 0.0978
A8G G34C | 0.0573
A8G G34U | 0.429
A8G G34A | 0.095
A8C U12C | 0.208
A8C U12G | 0.831
C7U C62G | 0.643

Variant | self-cleavage
C7U C62U | 0.831
C7U A78U | 0.166
C7U A78G | 0.375
C7U C21U | 0.0652
C7U C21G | 0.0739
C7U C21A | 0.0314
A8C U65C | 0.684
A8C U65G | 0.985
A8C U65A | 0.76
A8G G68U | 0.855
A8C U47A | 0.519
C7U U65G | 0.856
A8G G25C | 0.175
A8G G25A | 0.0639
A8C C63U | 0.633
A8G G52U | 0.849
A8C C61U | 0.643
A8C C33A | 0.0504
A8C C33U | 0.554
A8G G55U | 0.804
A8G G55C | 0.982
A8C C75A | 0.128
A8C C75G | 0.277
C7U U27C | 0.404

Variant | self-cleavage
C7U U27A | 0.519
A8G C48G | 1.11
A8G C48A | 1.07
A8G C48U | 1.26
A8G A45C | 0.332
A8G A45U | 0.692
A8C G73C | 0.115
A8G G73A | 0.369
C7U C18U | 0.277
C7U C85U | 0.886
C7U C85G | 0.985
A8G A70U | 0.831
A8G A70G | 1.09
A8C A51G | 0.997
A8C A51C | 0.802
A8C G81C | 0.166
A8C G81U | 0.201
A8G C41A | 0.914
A8C C13U | 0.356
A8C C13A | 0.266
A8C G54C | 0.746
C7U C49G | 0.665
A8C G34U | 0.104
A8C G34C | 0.178

Variant | self-cleavage
C7U G34U | 0.0923
C7U G31C | 0.727
C7U G31A | 0.876
A8C G52U | 0.566
A8C G52A | 0.831
C7U U9C | 1.02
A8G A87U | 0.991
A8G A71C | 0.447
A8G A71U | 0.902
A8G A71G | 0.739
A8C C36A | 0
A8C C36G | 0
A8G C86G | 1.23
A8G C86A | 1.15
A8C G67A | 0.898
A8C G67C | 0.623
A8C G67U | 0.739
C7U U69G | 0.855
A8G G59A | 0.743
A8C C14A | 0.375
A8C C14U | 0.831
A8C C14G | 0.237
A8G A42U | 0.317
A8G A42G | 0.68

Variant | self-cleavage
A8C C57A | 0.89
C7U U20G | 0.133
C7U U20A | 0.0594
C7U U20C | 0
C7U G50C | 0.689
A8C G40A | 0.511
A8C G28U | 0.0978
A8C G28A | 0.252
A8C C62G | 0.475
A8C C62A | 0.918
A8C C44A | 0.222
A8C C44G | 0.401
A8C U79G | 0.462
A8C U79C | 0.181
A8C C85A | 0.831
A8C C85G | 0.798
C7U G28C | 0.237
C7U G28A | 0.136
C7U G39U | 0.289
C7U G39A | 0.3
A8C C84A | 0.751
A8C C84U | 0.462
C7U G52C | 0.849
C7U G52U | 0.562

Variant | self-cleavage
C7U C75U | 0.0978
C7U C64U | 0.68
C7U C64G | 0.892
A8G C75U | 0.133
A8G C75G | 0.525
C7U A77G | 0.434
C7U C44A | 0.403
A8C G82A | 0.172
A8C C19G | 0.115
A8C C19U | 0.0739
A8G C66G | 0.969
A8G C66A | 0.886
C7U C58G | 1.02
C7U C26U | 0.867
C7U C26G | 0.534
C7U C26A | 0.91
A8G G10U | 0.431
C7U C61A | 0.87
C7U U79G | 0.434
C7U U79C | 0.126
A8G C64A | 0.764
A8C C30G | 0
C7U G17A | 0.332
A8G C85U | 1.06

Variant | self-cleavage
C7U A83G | 0.475
C7U A83C | 0.287
A8G A56G | 0.719
C7U G53C | 1.12
A8C C49U | 0.567
A8C C49G | 0.475
A8C C26A | 0.629
C7U U72G | 0.332
C7U U72A | 0.604
C7U U72C | 0.268
C7U G74C | 0.325
A8C G53C | 0.739
A8C C32A | 0.119
C7U U37A | 0.0739
C7U U37C | 1.14
C7U G67C | 0.529
C7U U23A | 0.923
C7U U23C | 0.516
A8C G76A | 0.95
A8C G76U | 0.785
A8G C30U | 0.806
A8G C30A | 0.237
A8G C30G | 0.128
A8C C86U | 0.862

Variant | self-cleavage
A8C C86A | 0.72
A8C G38C | 0.0978
A8C G38A | 0.0369
A8C C66U | 0.76
A8C C66G | 0.997
C7U G59C | 0.848
A8C U9C | 0.962
A8C U9A | 0.755
A8C U9G | 0.692
A8G C61U | 0.982
A8G C22A | 0.101
A8G | 1.02
A8C | 0.859
A8C U60A | 0.831
A8C U60C | 0.489
C7U G76C | 0.815
C7U C15U | 0.674
C7U C15A | 0.256
C7U C19G | 0.0528
C7U C19U | 0.0519
A8C G31A | 0.162
C7U G25U | 0.203
C7U C66G | 0.974
C7U C66A | 0.776

Variant | self-cleavage
A8G A78U | 0.266
A8G A78C | 0.166
A8G G50U | 0.984
A8G C21G | 0.0536
A8G C21U | 0.201
A8C C22G | 0.0791
A8C C15U | 0.604
A8C C15G | 0.378
A8C G35C | 0
A8C G35U | 0.269
A8C A43G | 0.151
A8C A43C | 0.185
A8G C24A | 0.762
A8G C24U | 0.665
A8G C24G | 0.0639
A8C A70C | 0.612
A8C C41U | 0.748
A8G G67A | 0.755
A8C G11C | 0.151
A8C G11A | 0.229
C7U G35A | 0.109
C7U G35U | 0.0437
C7U C48U | 0.997
C7U C48A | 0.767

Variant | self-cleavage
A8G G31C | 0.145
A8G G31U | 0.587
A8G G31A | 0.415
C7U C84U | 0.686
A8G G53U | 1.02
A8G G53A | 1.04
A8C A78G | 0.35
A8C A78U | 0.119
A8C A45C | 0.156
A8C A45U | 0.429
A8G C33G | 0.0755
A8G G38C | 0.138
A8C U46G | 0.554
A8C U46C | 0.615
A8C A77G | 0.798
A8C U69G | 0.712
A8C U69A | 0.688
C7U C63A | 0.751
C7U C63G | 0.569
A8G G29C | 0
A8G G29A | 0
A8G C36G | 0.104
A8G A43C | 0.145
A8G A43G | 0.415

Variant | self-cleavage
A8G A43U | 0.519
A8C C64U | 0.923
A8C C64G | 0.415
A8C C64A | 0.639
A8C C48A | 1.35
C7U G10U | 0.374
A8G C26A | 1.11
A8G C26U | 1.16
A8C A56G | 0.939
A8C G17C | 0
C7U G29U | 0.157
C7U G29A | 0.0906
C7U G29C | 0.185
C7U G80A | 0.164
C7U G80C | 0.0773
C7U G82U | 0.0678
C7U G82A | 0.251
C7U C24A | 0.256
A8G G54A | 0.877
A8G G54C | 1.07
C7U C41A | 0.571
A8C A16U | 1.16
A8C U20C | 0
A8G C84U | 0.864

Variant | self-cleavage
A8G C84G | 0.396
C7U U47A | 0.554
C7U U47G | 0.9
C7U C14G | 0.308
C7U C14A | 0.516
A8C A71C | 0.308
A8C A71U | 0.427
A8C G50C | 1.04
A8C G50U | 0.864
C7U G38C | 0.0462
A8C G59C | 0.923
A8C G59A | 1.07
A8C C18U | 0.369
A8C C18G | 0.0875
A8G A83G | 0.88
A8G A83C | 0.262
C7U G55U | 0.815
A8G C63A | 1.22
A8G C63G | 1.11
A8G C49U | 0.692
A8G C49G | 1.27
A8G C13A | 0.175
A8C U27C | 0.739
A8C U27G | 0.88

Variant | self-cleavage
A8C G74C | 0.269
A8C G74U | 0.475
A8G C19A | 0.107
A8C U23G | 0.332
C7U G68A | 0.969
C7U G68C | 0.704
A8G C57G | 1.27
A8G C57U | 1.16
C7U G54A | 0.787
C7U C57U | 0.927
C7U C57A | 0.979
C7U U46A | 0.623
C7U U46C | 0.447
C7U C22A | 0.261
C7U C22G | 0.0678
C7U C30G | 0
C7U C30A | 0.369
A8G C58A | 1.07
A8G C58U | 0.962
A8G C58G | 0.895
A8C C21A | 0.0449
A8G G39U | 0.54
A8G G39A | 0.302
A8C G55C | 1.03

Variant | self-cleavage
A8C G55U | 0.831
A8G C14U | 0.997
A8G C14A | 0.0791
A8G A16G | 1.14
A8G G17A | 0.629
A8G G17C | 0.0519
A8G A51U | 1.06
A8G A51C | 0.962
A8C G80U | 0.07
A8C G80A | 0.326
A8G G40C | 0.369
A8G G40U | 0.554
C7U G11C | 0.119
C7U C33A | 0.0831
C7U G40A | 0.752
C7U G40C | 0.166
A8C G29A | 0.18
A8C G29C | 0
A8C G29U | 0.151
A8C A42G | 0.462
C7U A87G | 0.91
A8G G11A | 0.196
